From patent US20230071765A1, “COMPOSITIONS HAVING THIOREDOXIN ACTIVITY AND RELATED METHODS” (ORPRO THERAPEUTICS, INC., priority 2020, published 2023)

Experiments:
Type in all cases: physicochemical
[1] = DTNB assay of reduction state (free SH groups); settings: for % reduced (68 hrs): 25° C., red fraction removed
Description: Functional assays 1. Reduction state of ORP100S was quantified using DTNB which reacts with free SH groups resulting in a yellow color change at 412 nm. Fifty microliters of 2.5 mM rhTrx was added to a 96-well plate, followed by 175 microliters of sample buffer and 25 microliters of 6 mM DTNB. After reactions were initiated by the addition of DTNB, change in kinetic absorbance at 412 nm due to DTNB reduction was monitored spectrophotometrically at 30° C. ORP100S concentration was determined by A280 (Nanodrop) using the extinction coefficient of human Trx-1 (7,000). The actual concentrations of free sulfhydryl groups were calculated based on the absorbance at 412 nm and the extinction coefficient of DTNB (14,150) in order to determine the reduction state as percentage of free sulfhydryl. […] 2. Percent of free monomer ORP100S in solution was determined using SEC. Samples were analyzed on a BioBasic S-300 250×4.6 column (Thermo Scientific) run on an Agilent 1100 HPLC system. The SEC-HPLC mobile phase buffer consisted of 40 mM ammonium acetate (pH 5.5), 2 mM EDTA and 450 mM NaCl. Low pH minimized dimerization while the 450 mM NaCl concentration improved resolution. The flow rate was 0.35 mL/min and absorbance was monitored at 280 nm. The length of each run was 20 minutes. The ORP100S monomer percentage was determined by integration of the area under the peak of the monomeric fraction divided by the total area under the curve of the chromatogram. 3. Disulfide bond reduction activity of ORP100S was quantified by assaying the reduction state of a small protein (human insulin) which in its heterodimeric form contains two intermolecular and one intramolecular disulfide, all three of which are known to be suitable thioredoxin substrates. Insulin reduction has classically been used to quantify thioredoxin activity by absorbance change following addition of NADPH and TrxR (Holmgren A., 1979, Thioredoxin catalyzes the reduction of insulin disulfides by dithiothreitol and dihydrolipoamide, J Biol Chem 254:9627-32). Such an approach is not suitable for monothiol C35S thioredoxins ORP-100 and ORP100S due to 1) the lack of cycling resulting from stoichiometric covalent linkage to the disulfide bond substrate and 2) the inability of NADPH and TrxR to reduce Cys32 of the oxidized monothiol Trx active site. Consequently, a new assay was developed based on the use of reverse-phase (RP) HPLC to monitor the rate of conversion of disulfide-bonded insulin heterodimers to monomeric forms. The two chains of human insulin have a total of six Cys residues which form three disulfide bonds in its mature structure. When ORP100S in the reduced form is incubated with dimeric insulin it reacts with these disulfide bonds to disrupt them, simultaneously forming covalent linkages to the ORP100S Cys32. […] The ORP100S samples were incubated with 10 mg/mL insulin for various time points (0-90 min) and the reactions were stopped by addition of iodacetic acid (IA) and trifluoroacetic acid (TFA). Relative activity at each time point was determined from changes in the area under the insulin heterodimer peak following separation over RP-HPLC (Agilent 1100) using an Intrada WP-RP 50×3 (Imtakt) column. Buffer A was 0.1% TFA and Buffer B was 0.1% TFA in acetonitrile. The gradient was […] in 5 min followed by 30 to 60% B in 45 min, then 60 to 80% B for an additional 5 min. The flow rate was 0.2 mL/min and absorbance was measured at 280 nm. In order to evaluate the change in the intact insulin molecule a time 0 baseline was first established using 1 M IA and 0.1% TFA without the addition of ORP100S. The area under the intact insulin heterodimer peak was then determined and set as equivalent to 100%. After the reaction with ORP100S the area of the intact insulin peak (corresponding to retention time) was measured. The percent reduction in intact insulin was then calculated from the decrease in the area following reduction divided by the area at time 0 multiplied by 100.

[2] = check for precipitates by centrifugation; settings: 25° C., 0-232 hours
Description: The stability of ORP100S without the red fraction was evaluated at room temperature (25° C.) by SEC analysis as described in the preceding Examples. Protein solutions were prepared in PBS (saline) at concentrations of 70, 80, 90, 100 and 110 mg/ml corresponding to 6.0, 6.8, 7.7, 8.5 and 9.4 mM. These were incubated at room temperature for 0, 20, 44, 68, 140, 188 and 232 hours. At each time point tubes were centrifuged at 1000 RFC to check for precipitates and percent monomeric ORP100S determined by SEC. Additionally, at the 68 hr time point DTNB assays were performed to evaluate the degree of reduction.

[3] = stability analysis, lyophilized vs solution (DTNB and SEC-HPLC)
Description: Prior work, e.g. WO 2006/090127, teaches compositions for maintenance of thioredoxin in the reduced state. Significant experimentation was required to derive compositions able to keep thioredoxin reduced during storage, and these compositions were complex and required saccharide derivatives and EDTA as excipients. […] ORP-100 and ORP100S proteins were reduced with 100 mM DTT and exchanged over a NAP-5 column into volatile 20 mM ammonium acetate buffer at pH 5.5 to remove residual reductant. Half of the material was frozen at −80° C. then lyophilized while the remainder was kept in solution at either 5° C. or 40° C. for various time points (“PH5.5”). Lyophilized protein was reconstituted back into 20 mM ammonium acetate pH 5.5 immediately prior to evaluation at each time point (“Lyophilized”). Stability was assessed by measuring both free SH groups (DTNB chromogenic assay) and the percent monomers (SEC-HPLC).
For FIG. 3: PH5.5: ORP-100 or ORP100S protein maintained in liquid formulation of 20 mM ammonium acetate, pH 5.5 for 0, 3, 7, 14, 21, 28, 90, or 180 days. Lyophilized: ORP-100 or ORP100S protein stored in the lyophilized form at 5° C. or 40° C. for the 0, 3, 7, 14, 21, 28, 90, or 180 days and assayed following reconstitution in 20 mM ammonium acetate, pH 5.5. Percent free sulfhydryl (reduction state) at 5° C. Second panel: Percent monomer determined by SEC assay at 5° C. Third panel: Percent free sulfhydryl at 40° C. Fourth panel: Percent monomer determined by SEC assay at 40° C.

B1: ORP100S: thioredoxin with monothiol active site, Cys35 and non-active Cys 62, 69 and 73 substituted with serine (SEQ ID NO:29) (protein)
chain: MVKQIESKTAFQEALDAAGDKLVVVDFSATWCGPSKMIKPFFHSLSEKYSNVIFLEVDVDDSQDVASESEVKSMPTFQFFKKGQKVGEFSGANKEKLEATINELV
modifications: synthetic peptide motif
- % reduced (68 hrs) ([1]; 70 mg/mL in PBS): 109%
- % reduced (68 hrs) ([1]; 80 mg/mL in PBS): 87%
- % reduced (68 hrs) ([1]; 90 mg/mL in PBS): 91%
- % reduced (68 hrs) ([1]; 100 mg/mL in PBS): 91%
- % reduced (68 hrs) ([1]; 110 mg/mL in PBS): 102%
- DTNB % reduced ([1]; Ox:Red 0:100 mixture): 86%
- DTNB % reduced ([1]; Ox:Red 25:75 mixture): 73%
- DTNB % reduced ([1]; Ox:Red 50:50 mixture): 55%
- DTNB % reduced ([1]; Ox:Red 75:25 mixture): 49%
- DTNB % reduced ([1]; Ox:Red 100:0 mixture): 22%
- Precipitate (all time points) ([2]; 70 mg/mL in PBS): None
- Precipitate (all time points) ([2]; 80 mg/mL in PBS): None
- Precipitate (all time points) ([2]; 90 mg/mL in PBS): None
- Precipitate (all time points) ([2]; 100 mg/mL in PBS): None
- Precipitate (all time points) ([2]; 110 mg/mL in PBS): None
- storage stability (free SH, percent monomer) ([3]; lyophilized form, six months at 40° C.): excellent storage stability
- monomer stability by SEC-HPLC vs. ORP-100 ([3]; particularly first week of storage in liquid formulation): slightly better monomer stability
